Measured values taken from patent publication US12122830 (ABL BIO, dated 2024).

Columns and labels:
[1] = target: T1, human ROR1 expressed on the cell surface (human, UniProt Q01973 30-937); assay: flow cytometry on Calu-6 cells (lung cancer), C2E3 IgG at 10 µg/mL, MFI of anti-ROR1 / MFI of 2nd Ab
T1 construct: whole, on cells; On JeKo-1 and Mino cells and other cancer cell lines (endogenous) and on transfected CHO and MC38 cells; also called cell surface-expressed ROR1; CHO-human ROR1
Experimental: (§1) For the cell lines, the binding to ROR1 was analyzed with FACS (FACSCalibur, BD Biosciences) by using the anti-ROR1 antibody of the present invention.
(§2) Specifically, after disassociating each cell line and washing in PBS, the number of cells was counted and set as 2 ×10^5 cells/200 µl PBS, and then the clone C2E3 among ROR1 monoclonal antibodies prepared in Example 3 was treated in 10 µg/mL, and it was reacted at 4° C. for 1 hour. After reaction, cells were washed in PBS, and then the FITC-labeled constant region (Fc)-specific antibody (Goat anti-human IgG FITC conjugate, Fc specific, Sigma, F9512, concentration: 2.0 mg/ml) was suspended in 2 µl/1 ×10^5 cells/200 µl PBS, and it was reacted at 4° C. for 1 hour. After reaction, cells were washed in PBS, it was analyzed using a FACSCalibur device. The negative control group was treated only with the FITC-labeled constant region (Fc)-specific antibody. To compare the expression degrees of ROR1 among the cancer cell lines, the value of the result for the peak shift in the experimental group treated with the ROR1 monoclonal antibody (C2E3) of the present invention was divided by the result for the peak shift in the control group (Mean Fluorescence Intensity Ratio MFI Ratio: MFI of anti-ROR1/MFI of 2nd Ab).

[2] = target: T1, human ROR1 expressed on the cell surface; assay: flow cytometry on AGS cells (gastric cancer), C2E3 IgG at 10 µg/mL, MFI of anti-ROR1 / MFI of 2nd Ab
Experimental: as §1, §2

[3] = target: T1, human ROR1 expressed on the cell surface; assay: flow cytometry on BT474 cells (breast cancer), C2E3 IgG at 10 µg/mL, MFI of anti-ROR1 / MFI of 2nd Ab
Experimental: as §1, §2

[4] = target: T1, human ROR1 expressed on the cell surface; assay: flow cytometry on SNU-1750 cells (gastric cancer), C2E3 IgG at 10 µg/mL, MFI of anti-ROR1 / MFI of 2nd Ab
Experimental: as §1, §2

[5] = target: T1, human ROR1 expressed on the cell surface; assay: flow cytometry on DLD-1 cells (colon cancer), C2E3 IgG at 10 µg/mL, MFI of anti-ROR1 / MFI of 2nd Ab
Experimental: as §1, §2

[6] = target: T1, human ROR1 expressed on the cell surface; assay: flow cytometry on 697 cells (ALL), C2E3 IgG at 10 µg/mL, MFI of anti-ROR1 / MFI of 2nd Ab
Experimental: as §1, §2

[7] = target: T2, recombinant mouse ROR1 protein (Acrobiosystems, RO1-M5221) (mouse, UniProt Q9Z139 30-406); assay: ELISA, recombinant mouse ROR1 protein coated at 1 µg/ml, IgG titrated, HRP anti-Fab detection
T2 construct: extracellular domain; Bought; also called mouse ROR1 antigen
Experimental: The anti-ROR1 antibody-antigen binding affinity was estimated by using an ELISA-based solution binding test. Specifically, a 96-well microtiter plate (Nunc-Immuno Plates, NUNC) was coated with the ROR1 protein at a concentration of 1 µg/ml in a PBS solution as described below at 4° C. for 16 hours, and non-specific binding sites were blocked with 3% BSA (bovine serum albumin) for 2 hours. For this, as the ROR1 protein, in case of human ROR1, ROR1-Fc of Example 1 or recombinant ROR1-His (Sino Biological, 13968-H08H) was used. The ROR1-His used for ELISA was a protein of sino biological company (13968-H08H) as described in the above sentence, and ROR1-His of Example 1 or recombinant mouse ROR1 protein was used (Acrobiosystems, RO1-M5221-100 µg).
Then, after adding the anti-ROR1 antibody prepared in Example 3 at the concentration described in FIG. 2 into the microtiter plate on a 96-well microtiter plate, the binding capacity was analyzed with ELISA as follows. Specifically, after constant temperature treatment for 2 hours, the plate was washed with PBS comprising 0.05% tween 20 5 times, and then a HRP-conjugated Fab multiclonal antibody reagent (Pierce, 31414) was diluted at 1:10,000 ratio, and was put into the washed microtiter plate, and it was incubated at 37° C. for 1 hour, and the ROR1 antibody bound to the plate was detected. After reaction, it was color-developed by using TMB (Tetramethylbenzidine, Sigma, T0440). The enzymatic reaction was stopped by 0.5 mol/L of sulfuric acid, and the absorbances at 450 nm and 650 nm were measured by using a micro plate reader device (molecular device) (450 nm-650 nm).

[8] = target: T1, human ROR1 expressed on the cell surface; assay: flow cytometry on Jurkat cells (T cell leukemia), C2E3 IgG at 10 µg/mL, MFI of anti-ROR1 / MFI of 2nd Ab
Experimental: as §1, §2

[9] = target: T1, human ROR1 expressed on the cell surface; assay: flow cytometry on NCI-N87 cells (gastric cancer), C2E3 IgG at 10 µg/mL, MFI of anti-ROR1 / MFI of 2nd Ab
Experimental: as §1, §2

[10] = target: T1, human ROR1 expressed on the cell surface; assay: flow cytometry on HCC70 cells (breast cancer), C2E3 IgG at 10 µg/mL, MFI of anti-ROR1 / MFI of 2nd Ab
Experimental: as §1, §2

[11] = target: T1, human ROR1 expressed on the cell surface; assay: flow cytometry on Mino cells (MCL), C2E3 IgG at 10 µg/mL, MFI of anti-ROR1 / MFI of 2nd Ab
Experimental: as §1, §2

[12] = target: T1, human ROR1 expressed on the cell surface; assay: flow cytometry on SNU-16 cells (gastric cancer), C2E3 IgG at 10 µg/mL, MFI of anti-ROR1 / MFI of 2nd Ab
Experimental: as §1, §2

T1 sequence (Q01973 30-937): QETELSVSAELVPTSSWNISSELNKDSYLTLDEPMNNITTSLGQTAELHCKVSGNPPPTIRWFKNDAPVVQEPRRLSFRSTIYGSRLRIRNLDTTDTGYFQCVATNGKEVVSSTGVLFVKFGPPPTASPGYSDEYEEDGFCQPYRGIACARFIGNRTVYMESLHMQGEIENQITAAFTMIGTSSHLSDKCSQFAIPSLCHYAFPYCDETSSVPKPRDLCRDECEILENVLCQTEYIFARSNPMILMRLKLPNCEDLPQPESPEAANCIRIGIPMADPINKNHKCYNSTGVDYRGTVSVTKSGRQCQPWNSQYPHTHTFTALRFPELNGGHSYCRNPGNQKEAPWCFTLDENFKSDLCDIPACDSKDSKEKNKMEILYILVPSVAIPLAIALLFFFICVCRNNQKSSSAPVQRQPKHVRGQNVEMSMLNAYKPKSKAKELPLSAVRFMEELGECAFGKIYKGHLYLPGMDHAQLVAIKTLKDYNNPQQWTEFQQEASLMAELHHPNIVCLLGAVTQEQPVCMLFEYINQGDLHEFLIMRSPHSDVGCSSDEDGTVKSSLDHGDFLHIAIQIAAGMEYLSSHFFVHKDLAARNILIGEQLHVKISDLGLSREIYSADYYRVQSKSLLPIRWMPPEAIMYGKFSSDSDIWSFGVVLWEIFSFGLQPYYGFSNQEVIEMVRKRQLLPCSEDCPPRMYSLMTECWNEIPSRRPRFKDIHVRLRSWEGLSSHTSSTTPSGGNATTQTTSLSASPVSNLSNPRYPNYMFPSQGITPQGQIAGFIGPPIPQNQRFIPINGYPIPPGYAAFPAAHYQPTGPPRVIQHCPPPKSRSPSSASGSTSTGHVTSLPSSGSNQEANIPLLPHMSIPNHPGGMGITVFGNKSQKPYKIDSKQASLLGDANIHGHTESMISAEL
T2 sequence (Q9Z139 30-406): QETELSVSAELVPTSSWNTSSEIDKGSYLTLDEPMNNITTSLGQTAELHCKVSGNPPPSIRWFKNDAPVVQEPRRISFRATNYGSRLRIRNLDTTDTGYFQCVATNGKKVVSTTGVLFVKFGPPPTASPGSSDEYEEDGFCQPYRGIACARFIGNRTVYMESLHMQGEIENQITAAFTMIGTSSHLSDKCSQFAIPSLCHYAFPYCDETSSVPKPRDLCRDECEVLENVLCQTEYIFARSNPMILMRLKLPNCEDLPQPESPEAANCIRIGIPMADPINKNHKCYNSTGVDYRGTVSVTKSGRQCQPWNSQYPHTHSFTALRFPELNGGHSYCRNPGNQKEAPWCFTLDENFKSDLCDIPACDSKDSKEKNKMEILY

Mean Fold Ratio [1]: 3.3
Mean Fold Ratio [2]: 12.3
Mean Fold Ratio [3]: 1.7
Mean Fold Ratio [4]: 3.9
Mean Fold Ratio [5]: 17.6
Mean Fold Ratio [6]: 12
binding result [7]: binds
Mean Fold Ratio [8]: 1.7
Mean Fold Ratio [9]: 11.8
Mean Fold Ratio [11]: 7.2
Mean Fold Ratio [12]: 2.4
B1: C2E3 anti-ROR1 IgG antibody (antibody, V domains shown)
VH: EVQLLESGGGLVQPGGSLRLSCAASGFTFSNYAMSWVRQAPGKGLEWVSSISHNSGSTYYADSVKGRFTISRDNSKNTLYLQMNSLRAEDTAVYYCAKFISARKSLGRSYSNGMDVWGQGTLVTVSS
VL: QSVLTQPPSASGTPGQRVTISCTGSSSNIGSNDVTWYQQLPGTAPKLLIYADSKRPSGVPDRFSGSKSGTSASLAISGLRSEDEADYYCGTWDYSLSGYVFGGGTKLTVLG
Mean Fold Ratio [10]: 3.8
